# Assay results: the supplement of paper PMC10567573
# B1: PRKX (parent)
# chain: KLLVVDRTRRLGNMKNGANDVKHH
# Variants of: B1
# Assay: protein stability index of a GFP-peptide fusion (GPS, HEK-293T) (PSI 1-6); higher = more stable
# Conditions: c terminus: a fixed tail appended
# 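Also: lentivirally expressed fusions sorted by FACS into six bins by GFP to DsRed ratio, PSI derived from sequencing read proportions per bin multiplied by bin number.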
row,Variant,protein stability index
1,KLLVVDRTRRLGNMKNGANDVKTH [H23T],3.18
2,KDLVVDRTRRLGNMKNGANDVKHH [L2D],4.03
3,KTLVVDRTRRLGNMKNGANDVKHH [L2T],3.61
4,KILVVDRTRRLGNMKNGANDVKHH [L2I],2.99
5,KLLVVDRTRRLGNMKNGAYDVKHH [N19Y],2.08
6,KLLVVDRTRRLGNMKNGAGDVKHH [N19G],3.12
7,KLLVVDRTRRLGNMKNGACDVKHH [N19C],2.66
8,KLLVVDRTRRLGNMKNGALDVKHH [N19L],2.47
9,KLLVVDRTRRLGNMKNGAMDVKHH [N19M],2.59
10,KLLVVDRTRRLGNMKNGGNDVKHH [A18G],3.27
11,KLLVVDRTRRLGNMKNGINDVKHH [A18I],2.35
12,KLLVVDRTRRLGNMKNGTNDVKHH [A18T],3.23
13,KLLVVDRTRRLGNMKNGMNDVKHH [A18M],2.16
14,KLLVVDRTRRSGNMKNGANDVKHH [L11S],3.27
15,KLLVVDRTRRMGNMKNGANDVKHH [L11M],2.77
16,KLLVVDRTRRYGNMKNGANDVKHH [L11Y],3.1
17,KLLVVDRTRRKGNMKNGANDVKHH [L11K],2.93
18,KLLVVDRTRRLGNAKNGANDVKHH [M14A],3.4
19,KLLVVDRTRRLGNSKNGANDVKHH [M14S],3.37
20,KLLVVDRTRRLGNWKNGANDVKHH [M14W],2.62
21,KLLVVDRTRRLGNYKNGANDVKHH [M14Y],3.03
22,KLLVVDRTRRLGNFKNGANDVKHH [M14F],2.99
23,KLLVVDRTRRLGNPKNGANDVKHH [M14P],2.98
24,KLLVVDRTRRLGNMKNGANDNKHH [V21N],3.74

row,Variant,protein stability index
1,KLLVVDRTRRLGNMKNGANDQKHH [V21Q],3.36
2,KLLVVDRTRRLGNMKNGANDSKHH [V21S],3.2
3,KLLVVDRTRRLGNMKNGANDPKHH [V21P],3.37
4,KLLVVDRTRRLGNMKNGANDRKHH [V21R],2.79
5,KLLCVDRTRRLGNMKNGANDVKHH [V4C],3.17
6,KLLNVDRTRRLGNMKNGANDVKHH [V4N],3.6
7,KLLTVDRTRRLGNMKNGANDVKHH [V4T],3.4
8,KLLPVDRTRRLGNMKNGANDVKHH [V4P],3.87
9,KLLAVDRTRRLGNMKNGANDVKHH [V4A],3.31
10,KLLLVDRTRRLGNMKNGANDVKHH [V4L],3
11,KLLKVDRTRRLGNMKNGANDVKHH [V4K],2.7
12,KLLVVDRTRRLGNMKYGANDVKHH [N16Y],2.38
13,KLLVVDRTRRLGNMKAGANDVKHH [N16A],2.54
14,KLLVVDRTRRLGNMKQGANDVKHH [N16Q],3.25
15,KLLVVDRTRRLGNMKGGANDVKHH [N16G],2.84
16,KLLVVDRTRRLGNMKDGANDVKHH [N16D],2.85
17,KLLVVDRTRRLGNMDNGANDVKHH [K15D],3.85
18,KLLVVDRTRRLGNMANGANDVKHH [K15A],3.25
19,KLLVVDRTRRLGNMKNGANDVFHH [K22F],2.04
20,KLLVVDRTRRLGNMKNGANDVHHH [K22H],3.06
21,KLLVVDRTRRLGNMKNGANDVLHH [K22L],2.97
22,KLLVVDRTRRLGNMKNGANYVKHH [D20Y],2.19
23,KLLVVDRTRRLGNMKNGANEVKHH [D20E],3.01
24,KLLVVDRTRRLGNMKNGANMVKHH [D20M],2.71

row,Variant,protein stability index
1,KLLVVDRTRRLGNMKNGANNVKHH [D20N],2.74
2,KLLVVDRTRRLGNMKNGANVVKHH [D20V],2.6
3,KLLVVDRTRILGNMKNGANDVKHH [R10I],2.94
4,KLLVVDRTRFLGNMKNGANDVKHH [R10F],2.31
5,KLLVVDRTRYLGNMKNGANDVKHH [R10Y],2.72
6,KLLVVDRTRMLGNMKNGANDVKHH [R10M],2.85
7,KLLVVDRTRALGNMKNGANDVKHH [R10A],3.06
8,KLLVVDRTRPLGNMKNGANDVKHH [R10P],3.43
9,KLLVVDRTRSLGNMKNGANDVKHH [R10S],4.15
10,KLLVVDRTRNLGNMKNGANDVKHH [R10N],3.4
11,KLLVFDRTRRLGNMKNGANDVKHH [V5F],2.65
12,KLLVYDRTRRLGNMKNGANDVKHH [V5Y],2.61
13,KLLVADRTRRLGNMKNGANDVKHH [V5A],3.74
14,KLLVTDRTRRLGNMKNGANDVKHH [V5T],3.67
15,KLLVDDRTRRLGNMKNGANDVKHH [V5D],4.07
16,KLLVVDRTKRLGNMKNGANDVKHH [R9K],2.99
17,KLLVVDRTNRLGNMKNGANDVKHH [R9N],2.81
18,KLIVVDRTRRLGNMKNGANDVKHH [L3I],3.31
19,KLMVVDRTRRLGNMKNGANDVKHH [L3M],3.66
20,KLKVVDRTRRLGNMKNGANDVKHH [L3K],3.55
21,KLWVVDRTRRLGNMKNGANDVKHH [L3W],3.29
22,KLDVVDRTRRLGNMKNGANDVKHH [L3D],4.38
23,KLEVVDRTRRLGNMKNGANDVKHH [L3E],4.33
24,KLCVVDRTRRLGNMKNGANDVKHH [L3C],3.74

row,Variant,protein stability index
1,KLVVVDRTRRLGNMKNGANDVKHH [L3V],2.86
2,KLLVVDRTRRLGVMKNGANDVKHH [N13V],3.02
3,KLLVVDRTRRLGFMKNGANDVKHH [N13F],2.02
4,KLLVVDRTRRLGHMKNGANDVKHH [N13H],2.81
5,KLLVVDRTRRLGGMKNGANDVKHH [N13G],2.84
6,KLLVVDWTRRLGNMKNGANDVKHH [R7W],2.5
7,KLLVVDETRRLGNMKNGANDVKHH [R7E],3.7
8,KLLVVDATRRLGNMKNGANDVKHH [R7A],3.79
9,KLLVVDSTRRLGNMKNGANDVKHH [R7S],3.21
10,KLLVVDLTRRLGNMKNGANDVKHH [R7L],2.92
11,KLLVVDRVRRLGNMKNGANDVKHH [T8V],3
12,KLLVVDRTRRLGNMKNGANDVKHY [H24Y],2.46
13,KLLVVDRTRRLGNMKNGANDVKHC [H24C],3
14,KLLVVDRTRRLKNMKNGANDVKHH [G12K],2.48
15,KLLVVPRTRRLGNMKNGANDVKHH [D6P],2.94
16,KLLVVVRTRRLGNMKNGANDVKHH [D6V],2.26
17,KLLVVCRTRRLGNMKNGANDVKHH [D6C],2.01
18,KLLVVNRTRRLGNMKNGANDVKHH [D6N],2.95
19,KLLVVDRTRRLGNMKNCANDVKHH [G17C],2.63
20,KLLVVDRTRRLGNMKNKANDVKHH [G17K],3.06
21,KLLVVDRTRRLGNMKNFANDVKHH [G17F],1.81
22,KLLVVDRTRRLGNMKNLANDVKHH [G17L],2.81
